The target in data set [1] is T1, full-length coagulation factor XII purified from human plasma, P00748.
T1 chain: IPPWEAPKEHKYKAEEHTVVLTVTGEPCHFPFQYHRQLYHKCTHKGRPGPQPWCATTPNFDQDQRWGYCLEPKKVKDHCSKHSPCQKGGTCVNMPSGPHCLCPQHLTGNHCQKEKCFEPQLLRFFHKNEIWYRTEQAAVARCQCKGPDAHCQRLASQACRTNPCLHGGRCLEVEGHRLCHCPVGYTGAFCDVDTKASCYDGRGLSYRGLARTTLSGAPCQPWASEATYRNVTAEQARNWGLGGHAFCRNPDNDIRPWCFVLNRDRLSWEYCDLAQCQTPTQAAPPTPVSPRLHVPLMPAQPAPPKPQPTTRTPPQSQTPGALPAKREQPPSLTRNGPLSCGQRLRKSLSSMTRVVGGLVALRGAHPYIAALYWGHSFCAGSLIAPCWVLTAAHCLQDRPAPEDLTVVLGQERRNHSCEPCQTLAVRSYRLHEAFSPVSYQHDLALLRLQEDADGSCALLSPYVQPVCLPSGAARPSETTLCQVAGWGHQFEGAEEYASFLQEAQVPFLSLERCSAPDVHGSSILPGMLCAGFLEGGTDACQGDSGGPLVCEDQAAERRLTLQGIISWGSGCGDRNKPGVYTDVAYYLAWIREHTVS

Data set [2] addresses recombinant human pro-HGF, P14210.
Data set [3] deals with prekallikrein purified from human plasma, P03952.
prekallikrein purified from human plasma, P03952, sequence (P03952 20-638): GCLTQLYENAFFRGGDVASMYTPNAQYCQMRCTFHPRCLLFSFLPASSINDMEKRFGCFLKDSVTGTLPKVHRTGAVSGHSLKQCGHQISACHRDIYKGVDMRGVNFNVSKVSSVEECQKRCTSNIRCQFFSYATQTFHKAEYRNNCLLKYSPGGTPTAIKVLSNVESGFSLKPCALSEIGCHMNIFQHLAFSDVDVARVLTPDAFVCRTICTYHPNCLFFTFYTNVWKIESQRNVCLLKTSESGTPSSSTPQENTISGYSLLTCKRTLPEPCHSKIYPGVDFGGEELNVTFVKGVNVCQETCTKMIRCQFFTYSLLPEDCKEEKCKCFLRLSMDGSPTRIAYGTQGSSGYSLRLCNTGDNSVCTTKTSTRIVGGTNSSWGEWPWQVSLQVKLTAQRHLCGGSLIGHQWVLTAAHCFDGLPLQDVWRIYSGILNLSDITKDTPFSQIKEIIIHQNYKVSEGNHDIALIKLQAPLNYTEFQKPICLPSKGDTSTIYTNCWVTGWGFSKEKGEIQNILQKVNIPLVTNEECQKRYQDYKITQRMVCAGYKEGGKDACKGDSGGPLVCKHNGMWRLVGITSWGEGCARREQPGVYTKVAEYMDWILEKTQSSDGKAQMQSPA

recombinant human pro-HGF, P14210, sequence (P14210 32-728): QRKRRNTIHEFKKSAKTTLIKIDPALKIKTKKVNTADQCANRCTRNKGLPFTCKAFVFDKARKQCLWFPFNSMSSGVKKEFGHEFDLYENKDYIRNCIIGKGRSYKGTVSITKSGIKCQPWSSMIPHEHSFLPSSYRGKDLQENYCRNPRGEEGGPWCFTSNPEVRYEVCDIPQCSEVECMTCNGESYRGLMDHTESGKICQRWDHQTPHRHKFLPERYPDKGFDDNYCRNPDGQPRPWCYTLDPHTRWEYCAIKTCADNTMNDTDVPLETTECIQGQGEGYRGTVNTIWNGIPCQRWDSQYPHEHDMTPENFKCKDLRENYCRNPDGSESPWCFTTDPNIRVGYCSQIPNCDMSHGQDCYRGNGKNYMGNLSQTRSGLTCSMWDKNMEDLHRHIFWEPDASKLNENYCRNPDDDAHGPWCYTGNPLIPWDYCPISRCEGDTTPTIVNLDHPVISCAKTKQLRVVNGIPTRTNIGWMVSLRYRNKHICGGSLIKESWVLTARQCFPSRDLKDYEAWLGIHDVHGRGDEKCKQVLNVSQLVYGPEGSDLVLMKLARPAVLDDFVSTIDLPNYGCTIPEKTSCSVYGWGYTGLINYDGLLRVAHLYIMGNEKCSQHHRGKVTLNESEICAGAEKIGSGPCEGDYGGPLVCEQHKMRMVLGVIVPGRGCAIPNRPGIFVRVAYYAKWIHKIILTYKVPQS

B1: cathepsin K (protein)
chain: APDSVDYRKKGYVTPVKNQGQCGSCWAFSSVGALEGQLKKKTGKLLNLSPQNLVDCVSENDGCGGGYMTNAFQYVQKNRGIDSEDAYPYVGQEESCMYNPTGKAAKCRGYREIPEGNEKALKRAVARVGPVSVAIDASLTSFQFYSKGVYYDESCNSDNLNHAVLAVGYGIQKGNKHWIIKNSWGENWGNKGYILMARNKNNACGIANLASFPKM
As for B1, the “cleavage of FXII (1.25 uM) by cathepsin K (100 nM), non-reducing SDS-PAGE with Coomassie staining” value in data set [1] was “incubation of full-length FXII with cathepsin K generated stable FXII fragments with sizes supporting cleavage between L296 and M297”.

B2: kallikrein-activated FXII (protein)
chain: IPPWEAPKEHKYKAEEHTVVLTVTGEPCHFPFQYHRQLYHKCTHKGRPGPQPWCATTPNFDQDQRWGYCLEPKKVKDHCSKHSPCQKGGTCVNMPSGPHCLCPQHLTGNHCQKEKCFEPQLLRFFHKNEIWYRTEQAAVARCQCKGPDAHCQRLASQACRTNPCLHGGRCLEVEGHRLCHCPVGYTGAFCDVDTKASCYDGRGLSYRGLARTTLSGAPCQPWASEATYRNVTAEQARNWGLGGHAFCRNPDNDIRPWCFVLNRDRLSWEYCDLAQCQTPTQAAPPTPVSPRLHVPLMPAQPAPPKPQPTTRTPPQSQTPGALPAKREQPPSLTRNGPLSCGQRLRKSLSSMTRVVGGLVALRGAHPYIAALYWGHSFCAGSLIAPCWVLTAAHCLQDRPAPEDLTVVLGQERRNHSCEPCQTLAVRSYRLHEAFSPVSYQHDLALLRLQEDADGSCALLSPYVQPVCLPSGAARPSETTLCQVAGWGHQFEGAEEYASFLQEAQVPFLSLERCSAPDVHGSSILPGMLCAGFLEGGTDACQGDSGGPLVCEDQAAERRLTLQGIISWGSGCGDRNKPGVYTDVAYYLAWIREHTVS
Turning to B2, in data set [2], the “cleavage of pro-HGF (25 ug/mL) by kallikrein-activated FXII (50 nM), western blot” value was “Pro-HGF was cleaved by kallikrein-activated FXII297-596 and kallikrein-activated FXII (arrows), but not by inactivated kallikrein alone”.

B3: two-chain tissue plasminogen activator (protein)
chain: SYQVICRDEKTQMIYQQHQSWLRPVLRSNRVEYCWCNSGRAQCHSVPVKSCSEPRCFNGGTCQQALYFSDFVCQCPEGFAGKCCEIDTRATCYEDQGISYRGTWSTAESGAECTNWNSSALAQKPYSGRRPDAIRLGLGNHNYCRNPDRDSKPWCYVFKAGKYSSEFCSTPACSEGNSDCYFGNGSAYRGTHSLTESGASCLPWNSMILIGKVYTAQNPSAQALGLGKHNYCRNPDGDAKPWCHVLKNRRLTWEYCDVPSCSTCGLRQYSQPQFRIKGGLFADIASHPWQAAIFAKHRRSPGERFLCGGILISSCWILSAAHCFQERFPPHHLTVILGRTYRVVPGEEEQKFEVEKYIVHKEFDDDTYDNDIALLQLKSDSSRCAQESSVVRTVCLPPADLQLPDWTECELSGYGKHEALSPFYSERLKEAHVRLYPSSRCTSQHLLNRTVTDNMLCAGDTRSGGPQANLHDACQGDSGGPLVCLNDGRMTLVGIISWGLGCGQKDVPGVYTKVTNYLDWIRDNMRP
B3: in data set [2], the “cleavage of pro-HGF, western blot” value is “other serine proteases found in the brain such as thrombin and tissue plasminogen activator did not convert pro-HGF to HGF”.

B4: recombinant human hepatocyte growth factor activator (protein)
chain: QPGGNRTESPEPNATATPAIPTILVTSVTSETPATSAPEAEGPQSGGLPPPPRAVPSSSSPQAQALTEDGRPCRFPFRYGGRMLHACTSEGSAHRKWCATTHNYDRDRAWGYCVEATPPPGGPAALDPCASGPCLNGGSCSNTQDPQSYHCSCPRAFTGKDCGTEKCFDETRYEYLEGGDRWARVRQGHVEQCECFGGRTWCEGTRHTACLSSPCLNGGTCHLIVATGTTVCACPPGFAGRLCNIEPDERCFLGNGTGYRGVASTSASGLSCLAWNSDLLYQELHVDSVGAAALLGLGPHAYCRNPDNDERPWCYVVKDSALSWEYCRLEACESLTRVQLSPDLLATLPEPASPGRQACGRRHKKRTFLRPRIIGGSSSLPGSHPWLAAIYIGDSFCAGSLVHTCWVVSAAHCFSHSPPRDSVSVVLGQHFFNRTTDVTQTFGIEKYIPYTLYSVFNPSDHDLVLIRLKKKGDRCATRSQFVQPICLPEPGSTFPAGHKCQIAGWGHLDENVSGYSSSLREALVPLVADHKCSSPEVYGADISPNMLCAGYFDCKSDACQGDSGGPLACEKNGVAYLYGIISWGDGCGRLHKPGVYTRVANYVDWINDRIRPPRRLVAPS
B4: in data set [2], the “cleavage of pro-HGF, western blot” value was “We confirmed the ability of hepatocyte growth factor activator (HGFA) and βFXIIa to cleave pro-HGF”.

B5: kallikrein-activated FXII297-596 (protein)
chain: MPAQPAPPKPQPTTRTPPQSQTPGALPAKREQPPSLTRNGPLSCGQRLRKSLSSMTRVVGGLVALRGAHPYIAALYWGHSFCAGSLIAPCWVLTAAHCLQDRPAPEDLTVVLGQERRNHSCEPCQTLAVRSYRLHEAFSPVSYQHDLALLRLQEDADGSCALLSPYVQPVCLPSGAARPSETTLCQVAGWGHQFEGAEEYASFLQEAQVPFLSLERCSAPDVHGSSILPGMLCAGFLEGGTDACQGDSGGPLVCEDQAAERRLTLQGIISWGSGCGDRNKPGVYTDVAYYLAWIREHTVS
Regarding B5, the “cleavage of prekallikrein (200 nM) by activated FXII297-596 (225 nM), western blot for kallikrein heavy chain” value in data set [3] is listed as “activated FXII297-596 converted prekallikrein to kallikrein as seen through the generation of kallikrein heavy chain”. The “cleavage of pro-HGF (25 ug/mL) by activated FXII297-596 (225 nM), western blot with anti-HGF” value in data set [2] was “kallikrein-activated FXII297-596 cleaved pro-HGF to the active two-chain form”.

B6: recombinant human FXII297-596 (protein)
chain: MPAQPAPPKPQPTTRTPPQSQTPGALPAKREQPPSLTRNGPLSCGQRLRKSLSSMTRVVGGLVALRGAHPYIAALYWGHSFCAGSLIAPCWVLTAAHCLQDRPAPEDLTVVLGQERRNHSCEPCQTLAVRSYRLHEAFSPVSYQHDLALLRLQEDADGSCALLSPYVQPVCLPSGAARPSETTLCQVAGWGHQFEGAEEYASFLQEAQVPFLSLERCSAPDVHGSSILPGMLCAGFLEGGTDACQGDSGGPLVCEDQAAERRLTLQGIISWGSGCGDRNKPGVYTDVAYYLAWIREHTVS
For the protein B6, in data set [3], the “cleavage of prekallikrein, western blot” value was “no cleavage of prekallikrein was observed with non-activated FXII297-596”.

B7: βFXIIa (protein)
chain: NGPLSCGQRLRKSLSSMTRVVGGLVALRGAHPYIAALYWGHSFCAGSLIAPCWVLTAAHCLQDRPAPEDLTVVLGQERRNHSCEPCQTLAVRSYRLHEAFSPVSYQHDLALLRLQEDADGSCALLSPYVQPVCLPSGAARPSETTLCQVAGWGHQFEGAEEYASFLQEAQVPFLSLERCSAPDVHGSSILPGMLCAGFLEGGTDACQGDSGGPLVCEDQAAERRLTLQGIISWGSGCGDRNKPGVYTDVAYYLAWIREHTVS
Take B7: the “cleavage of pro-HGF, western blot” value in data set [2] was “We confirmed the ability of hepatocyte growth factor activator (HGFA) and βFXIIa to cleave pro-HGF”.

The values above are taken from US20200315149.
